Results: paper PMC3138737, “Interaction between the Triglyceride Lipase ATGL and the Arf1 Activator GBF1” (PLoS ONE, 2011)

T1: GST-tagged ATGL(300–504) (human, UniProt Q96AD5 300-504)
T1 construct: source: E. coli BL21(DE3), purified (glutathione Sepharose 4B, Sephacryl S-200)
T1 sequence (looked up): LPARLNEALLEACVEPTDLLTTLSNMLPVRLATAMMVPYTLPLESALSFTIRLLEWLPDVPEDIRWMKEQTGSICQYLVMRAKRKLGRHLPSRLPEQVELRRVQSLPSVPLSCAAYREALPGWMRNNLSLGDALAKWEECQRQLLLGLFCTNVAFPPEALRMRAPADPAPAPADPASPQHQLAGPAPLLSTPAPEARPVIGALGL


Experiments:
GST-tagged ATGL(300–504) = target: T1, GST-tagged ATGL(300–504); test: pull-down; quantitative: 0.1 nmole His-Sec7-GBF1(710–894) immobilised on Ni Sepharose, 1–20 µM GST-tagged ATGL(300–504) added; anti-GST immunoblot, bound versus free, Scatchard analysis; apparent Kd; conditions: both partners purified
[1] = target: Venus-tagged GBF1 HDS1 domain (human); test: co-IP; Cos7 cells co-transfected with HA-tagged ATGL constructs and Venus-tagged constructs; IP with anti-GFP, blot with anti-HA; lysis in 50 mM Tris-HCl pH 7.5, 100 mM NaCl, 1 mM EDTA, 0.5% NP40; 4°C
Venus-tagged GBF1 HDS1 domain (human), sequence (Q92538 688-888): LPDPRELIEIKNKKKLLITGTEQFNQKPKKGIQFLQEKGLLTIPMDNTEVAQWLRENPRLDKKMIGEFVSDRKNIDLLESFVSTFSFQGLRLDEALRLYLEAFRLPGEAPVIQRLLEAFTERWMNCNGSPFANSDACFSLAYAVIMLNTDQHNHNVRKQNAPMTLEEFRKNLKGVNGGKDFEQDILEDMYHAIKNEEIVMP

Venus-ΔDCB-GBF1 (human) = test: as above
Venus-ΔDCB-GBF1 (human), sequence (Q92538 whole entry, stated change not applied): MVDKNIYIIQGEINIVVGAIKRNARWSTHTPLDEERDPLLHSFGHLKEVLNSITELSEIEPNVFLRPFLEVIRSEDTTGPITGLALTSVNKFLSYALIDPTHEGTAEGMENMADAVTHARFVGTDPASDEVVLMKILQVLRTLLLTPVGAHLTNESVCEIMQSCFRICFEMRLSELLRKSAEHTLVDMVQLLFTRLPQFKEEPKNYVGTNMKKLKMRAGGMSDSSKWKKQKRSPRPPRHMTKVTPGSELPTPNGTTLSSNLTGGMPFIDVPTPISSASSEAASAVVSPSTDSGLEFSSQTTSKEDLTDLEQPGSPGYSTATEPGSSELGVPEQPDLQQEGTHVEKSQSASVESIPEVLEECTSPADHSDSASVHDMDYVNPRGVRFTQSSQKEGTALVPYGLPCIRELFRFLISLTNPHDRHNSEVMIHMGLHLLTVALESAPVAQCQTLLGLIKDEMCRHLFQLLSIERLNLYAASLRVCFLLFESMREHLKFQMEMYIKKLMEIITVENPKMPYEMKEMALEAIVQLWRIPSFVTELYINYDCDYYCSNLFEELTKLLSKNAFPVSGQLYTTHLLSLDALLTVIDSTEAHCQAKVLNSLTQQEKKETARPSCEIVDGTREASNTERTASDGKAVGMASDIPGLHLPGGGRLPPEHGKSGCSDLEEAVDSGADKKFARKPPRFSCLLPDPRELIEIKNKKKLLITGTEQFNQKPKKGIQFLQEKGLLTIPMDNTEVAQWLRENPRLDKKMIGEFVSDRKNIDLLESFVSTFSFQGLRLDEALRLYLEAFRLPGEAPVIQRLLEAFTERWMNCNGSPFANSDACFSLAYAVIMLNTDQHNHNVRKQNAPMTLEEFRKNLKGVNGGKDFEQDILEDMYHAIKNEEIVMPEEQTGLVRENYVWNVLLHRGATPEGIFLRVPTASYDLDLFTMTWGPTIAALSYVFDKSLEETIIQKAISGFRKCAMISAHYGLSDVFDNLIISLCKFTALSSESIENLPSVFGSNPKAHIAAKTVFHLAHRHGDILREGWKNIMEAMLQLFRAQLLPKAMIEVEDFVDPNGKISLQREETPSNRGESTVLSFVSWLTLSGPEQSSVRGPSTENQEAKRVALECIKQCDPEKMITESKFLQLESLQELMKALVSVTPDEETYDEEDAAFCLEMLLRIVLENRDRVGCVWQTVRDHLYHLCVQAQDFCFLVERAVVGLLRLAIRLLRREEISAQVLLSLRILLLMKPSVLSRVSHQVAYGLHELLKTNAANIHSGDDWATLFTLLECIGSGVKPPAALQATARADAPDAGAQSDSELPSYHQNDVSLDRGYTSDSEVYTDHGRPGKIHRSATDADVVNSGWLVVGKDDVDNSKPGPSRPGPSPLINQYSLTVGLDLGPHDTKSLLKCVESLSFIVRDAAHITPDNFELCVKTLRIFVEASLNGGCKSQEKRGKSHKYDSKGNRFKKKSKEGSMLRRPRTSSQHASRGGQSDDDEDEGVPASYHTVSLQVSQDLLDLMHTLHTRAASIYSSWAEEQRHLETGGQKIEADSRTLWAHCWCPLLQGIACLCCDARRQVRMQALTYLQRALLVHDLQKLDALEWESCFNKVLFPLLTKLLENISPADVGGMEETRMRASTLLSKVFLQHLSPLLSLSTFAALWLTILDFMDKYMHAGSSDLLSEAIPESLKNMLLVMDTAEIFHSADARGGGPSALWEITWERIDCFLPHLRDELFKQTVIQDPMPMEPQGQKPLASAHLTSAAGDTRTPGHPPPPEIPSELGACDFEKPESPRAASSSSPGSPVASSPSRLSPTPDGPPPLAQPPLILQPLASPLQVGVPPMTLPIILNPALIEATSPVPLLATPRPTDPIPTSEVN

[2] = target: Venus-tagged full-length GBF1 D544A (human) (UniProt Q92538); test: as above
Venus-tagged full-length GBF1 D544A (human), sequence (Q92538 other isoform, or with tags, fused parts or gaps, stated change not applied): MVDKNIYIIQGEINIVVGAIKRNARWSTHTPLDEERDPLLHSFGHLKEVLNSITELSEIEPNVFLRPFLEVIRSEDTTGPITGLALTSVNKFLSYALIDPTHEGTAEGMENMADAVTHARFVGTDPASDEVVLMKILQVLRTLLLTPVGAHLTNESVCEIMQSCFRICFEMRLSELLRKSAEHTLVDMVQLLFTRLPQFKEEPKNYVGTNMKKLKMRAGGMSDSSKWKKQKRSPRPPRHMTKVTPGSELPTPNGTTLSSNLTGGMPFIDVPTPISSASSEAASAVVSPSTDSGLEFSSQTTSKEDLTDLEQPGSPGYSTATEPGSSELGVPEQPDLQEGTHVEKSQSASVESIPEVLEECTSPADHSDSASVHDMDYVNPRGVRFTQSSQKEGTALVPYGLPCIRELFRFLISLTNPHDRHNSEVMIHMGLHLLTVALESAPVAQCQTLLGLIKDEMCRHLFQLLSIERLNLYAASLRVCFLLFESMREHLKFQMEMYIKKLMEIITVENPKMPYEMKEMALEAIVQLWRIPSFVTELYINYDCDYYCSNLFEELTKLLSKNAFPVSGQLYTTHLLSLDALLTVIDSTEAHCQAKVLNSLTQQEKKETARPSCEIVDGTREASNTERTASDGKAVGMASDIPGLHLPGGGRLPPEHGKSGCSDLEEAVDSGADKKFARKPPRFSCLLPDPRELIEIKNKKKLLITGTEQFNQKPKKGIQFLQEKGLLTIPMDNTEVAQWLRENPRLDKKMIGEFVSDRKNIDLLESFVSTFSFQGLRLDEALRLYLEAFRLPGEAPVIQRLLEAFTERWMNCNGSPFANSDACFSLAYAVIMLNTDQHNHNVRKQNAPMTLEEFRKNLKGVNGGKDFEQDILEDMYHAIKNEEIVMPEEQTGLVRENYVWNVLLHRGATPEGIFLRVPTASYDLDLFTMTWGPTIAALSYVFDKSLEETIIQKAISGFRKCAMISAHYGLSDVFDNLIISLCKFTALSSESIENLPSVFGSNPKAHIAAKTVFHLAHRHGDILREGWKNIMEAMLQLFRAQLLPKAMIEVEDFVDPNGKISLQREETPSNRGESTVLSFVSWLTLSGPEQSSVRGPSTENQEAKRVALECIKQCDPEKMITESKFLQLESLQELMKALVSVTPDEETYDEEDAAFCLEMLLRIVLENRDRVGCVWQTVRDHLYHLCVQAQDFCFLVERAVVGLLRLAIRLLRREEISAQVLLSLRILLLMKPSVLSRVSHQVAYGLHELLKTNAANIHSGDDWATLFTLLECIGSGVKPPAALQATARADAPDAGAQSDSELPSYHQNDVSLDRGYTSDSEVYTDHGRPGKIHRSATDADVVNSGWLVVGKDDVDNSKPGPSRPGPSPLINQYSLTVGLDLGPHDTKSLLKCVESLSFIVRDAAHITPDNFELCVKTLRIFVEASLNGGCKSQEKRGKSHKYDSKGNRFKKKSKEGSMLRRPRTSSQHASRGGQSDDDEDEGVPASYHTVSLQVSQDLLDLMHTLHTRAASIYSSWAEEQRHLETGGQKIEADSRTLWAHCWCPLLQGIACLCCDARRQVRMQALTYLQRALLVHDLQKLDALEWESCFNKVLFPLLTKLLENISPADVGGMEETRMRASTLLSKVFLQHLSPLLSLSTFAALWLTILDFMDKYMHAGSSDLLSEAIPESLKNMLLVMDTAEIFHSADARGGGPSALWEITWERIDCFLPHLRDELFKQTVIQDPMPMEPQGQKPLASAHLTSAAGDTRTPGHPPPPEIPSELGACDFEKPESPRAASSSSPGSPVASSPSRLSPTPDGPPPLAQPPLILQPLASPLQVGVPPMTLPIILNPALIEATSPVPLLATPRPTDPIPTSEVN

[3] = target: Venus-tagged N-GBF1 D544A (human); test: as above

| Binder | Kd (GST-tagged ATGL(300–504)) [nM] | percent of ATGL recovered in the co-IP [1] [%] | fold level of interaction over wild type GBF1 (Venus-ΔDCB-GBF1 (human)) [fold] | fold level of interaction over wild type GBF1 [2] [fold] | fold level of interaction over the wild type N-terminal region [3] [fold] |
| --- | --- | --- | --- | --- | --- |
| His-Sec7-GBF1(710–894) (domain or fragment, human, UniProt Q92538-1 710-894, looked up, Sec7 domain, residues 710-894; the end of the His tag is read from the printed name; vector pBAD/His C; also called His-tagged Sec7 domain of GBF1; His-Sec7-GBF1 fragment; not shown: His tag, N-terminal, kept) FNQKPKKGIQFLQEKGLLTIPMDNTEVAQWLRENPRLDKKMIGEFVSDRKNIDLLESFVSTFSFQGLRLDEALRLYLEAFRLPGEAPVIQRLLEAFTERWMNCNGSPFANSDACFSLAYAVIMLNTDQHNHNVRKQNAPMTLEEFRKNLKGVNGGKDFEQDILEDMYHAIKNEEIVMPEEQTGLV | 2500 ± 300 | – | – | – | – |
| HA-tagged H. sapiens ATGL (full-length) (natural protein) MFPREKTWNISFAGCGFLGVYYVGVASCLREHAPFLVANATHIYGASAGALTATALVTGVCLGEAGAKFIEVSKEARKRFLGPLHPSFNLVKIIRSFLLKVLPADSHEHASGRLGISLTRVSDGENVIISHFNSKDELIQANVCSGFIPVYCGLIPPSLQGVRYVDGGISDNLPLYELKNTITVSPFSGESDICPQDSSTNIHELRVTNTSIQFNLRNLYRLSKALFPPEPLVLREMCKQGYRDGLRFLQRNGLLNRPNPLLALPPARPHGPEDKDQAVESAQAEDYSQLPGEDHILEHLPARLNEALLEACVEPTDLLTTLSNMLPVRLATAMMVPYTLPLESALSFTIRLLEWLPDVPEDIRWMKEQTGSICQYLVMRAKRKLGRHLPSRLPEQVELRRVQSLPSVPLSCAAYREALPGWMRNNLSLGDALAKWEECQRQLLLGLFCTNVAFPPEALRMRAPADPAPAPADPASPQHQLAGPAPLLSTPAPEARPVIGALGL | – | 10 | 10 | 10 | 5 to 10 |
